Results taken from patent US7799901B2, “Modulators of the function of FAS receptors and other proteins” (Yeda Research and Development Co. Ltd., priority 1995, dated 2010).
“Also recorded” adds a separate entry of the source.

Columns and labels:
[1] = system: human embryonic kidney 293-EBNA cells; assay: Cell death on overexpression of MACH isoforms in 293-EBNA cells; format: cell-based; conditions: β-galactosidase-expressing cells with apoptopic morphology, 20 h after transfection
Description: (§1) To explore the involvement of MACH in cell-death induction, the effect of overexpression of various MACH isoforms on cell viability was examined. The test was performed by transfecting MACH expression vectors together with a β-galactosidase expression vector as a transfection marker into human embryonic kidney 293-EBNA cells and breast carcinoma MCF7 cells.
(§2) In brief, 293-EBNA cells, MCF7 human breast carcinoma cells and HeLa HtTA-1 cells were grown in Dulbecco's modified Eagle's minimal essential medium supplemented with 10% fetal calf serum, nonessential amino acids, 100 U/ml penicillin and 100 μg/ml streptomycin. Cell tissue culture dishes (5×10^5 293-EBNA cells, 3×10^5 s MCF7 cells or 3×10^5 HeLa cells in 6-cm dishes) were transiently transfected, using the calcium phosphate precipitation method, with the cDNAs of the indicated proteins together with the β-galactosidase expression vector. In the experiments presented in FIGS. 14A-D and 15, each dish was transfected with 3.5 μg of the indicated MACH construct and 1.5 μg of pSV-β-gal. In the experiments presented in FIGS. 16A-D and 17-19, each dish was transfected with 2.5 μg of the indicated MACH or MORT1 construct (or, as control, empty vector) and 1.5 μg of pSV-β-gal. The cells were rinsed 6 to 10 h after transfection. The 293-EBNA and MCF7 cells were incubated for a further 18 h without additional treatment. The HeLa cells were incubated for 26 h after transfection and-then for 5 h in the presence of either anti-Fas.APO1 antibody (CH11, 0.5 μg/ml) or TNF (100 ng/ml), together with cycloheximide (10 μg/ml). The extent of cell death at the end of the incubation periods was assessed by determination of β-galactosidase expression, as described by Kumar et al, 1994.
(§3) In particular, FIGS. 14A-D show the morphology of human embryonic kidney 293-EBNA cells transiently expressing the indicated MACH isoforms. The arrows (FIG. 14B) point to apoptopic cells. Photographs were taken 26 h after transfection. […] Data are from three independent experiments with the 293-EBNA cells and two independent experiments with the MCF7 cells.

[2] = system: Fas/APO1 cytotoxicity (p55-Fas chimera) in 293-EBNA cells; format: cell-based, human; conditions: co-transfection
Description: as §2, with “The HeLa cells were incubated for 26 h after transfection and-then for 5 h in the presence of either anti-Fas.APO1 antibody (CH11, 0.5 μg/ml) or TNF (100 ng/ml), together with cycloheximide (10 μg/ml).” left out, “1994. […]” for “1994.”
(§4) In particular, FIGS. 16A-D show morphology of 293-EBNA cells in which cell death was induced by transient expression of a chimera comprised of the extracellular domain of the p55-R (amino acids 1-168) fused to the transmembrane and intracellular domains of Fas/APO1 (amino acids 153-319) (p55-Fas chimera) (FIGS. 16A and 16B), or by expression of the p55-R (FIGS. 16C and 16D), and of cells that were protected from these cytotoxic effects by their simultaneous transfection with MACHα1 (C360S) (FIGS. 16B and 16D). […] FIG. 17 illustrates the quantification of death induced in 293-EBNA cells by their transfection with p55-Fas chimera or with p55-R, together with an empty vector, a MORT1 deletion mutant lacking the MACH-binding region (MORT1 (92-208)), or MACHα molecules containing a nonfunctional CED3/ICE region. […] Data are from at least two independent experiments and are expressed as in FIGS. 14A-F and 15.

[3] = system: breast carcinoma MCF7 cells; assay: Cell death on overexpression of MACH isoforms in MCF7 cells; format: cell-based, human; conditions: β-galactosidase-expressing cells with apoptopic morphology, 20 h after transfection
Description: as §1, §2, §3

[4] = system: TNF-induced death of HeLa cells; assay: Death of HeLa cells induced by TNF and cycloheximide; format: cell-based, human; conditions: TNF 100 ng/ml, cycloheximide 10 μg/ml
Description: as §2, with “1994. […]” for “1994.”

[5] = system: p55-R-induced cytotoxicity in 293-EBNA cells; assay: Death of 293-EBNA cells induced by over-expression of p55-R; format: cell-based, human; conditions: co-transfection
Description: as §2, with “The HeLa cells were incubated for 26 h after transfection and-then for 5 h in the presence of either anti-Fas.APO1 antibody (CH11, 0.5 μg/ml) or TNF (100 ng/ml), together with cycloheximide (10 μg/ml).” left out, “1994. […]” for “1994.”
as §4

[6] = system: HeLa cells; assay: Cell death on overexpression of MACH isoforms in HeLa cells; format: cell-based; conditions: FIG. 19
Description: as §2
To examine the involvement of the CED3/ICE homology region within the MACHα isoforms in their apoptopic effects, cells were transfected with the expression vector for the MACHβ1 isoform, which lacks the CED3/ICE homology region, as well as with expression vectors for MACHα3, which lacks an N-terminal part of the region, and with expression vectors for MACHα1 (C360S) and for a C-terminally truncated mutant of MACHα1 (MACHα1 (1-415)), which lacks one of the residues believed to be critical for CED3/ICE protease function (corresponding to Ser347 in ICE). […]

[7] = system: Fas/APO1-induced death of HeLa cells; assay: Death of HeLa cells expressing Fas/APO1 induced by anti-Fas/APO1 antibody and cycloheximide; format: cell-based, human; conditions: HeLa cells transiently expressing Fas/APO1; CH11 0.5 μg/ml, cycloheximide 10 μg/ml
Description: as §2
The HeLa cells were made responsive to Fas/APO1 by transient expression of this receptor. […] These protective effects indicate that MACHα is a necessary component of both the Fas/APO1- and the p55-R-induced signaling cascades for cell death.
In particular, FIGS. 16A-D show morphology of 293-EBNA cells in which cell death was induced by transient expression of a chimera comprised of the extracellular domain of the p55-R (amino acids 1-168) fused to the transmembrane and intracellular domains of Fas/APO1 (amino acids 153-319) (p55-Fas chimera) (FIGS. 16A and 16B), or by expression of the p55-R (FIGS. 16C and 16D), and of cells that were protected from these cytotoxic effects by their simultaneous transfection with MACHα1 (C360S) (FIGS. 16B and 16D). Photographs were taken 26 h after transfection. FIG. 17 illustrates the quantification of death induced in 293-EBNA cells by their transfection with p55-Fas chimera or with p55-R, together with an empty vector, a MORT1 deletion mutant lacking the MACH-binding region (MORT1 (92-208)), or MACHα molecules containing a nonfunctional CED3/ICE region. […] Data are from at least two independent experiments and are expressed as in FIGS. 14A-F and 15.

B1: MACHα3: MACH isoform, cDNA SEQ ID NO: 19, amino acid SEQ ID NO: 20; lacks an N-terminal part of the CED3/ICE region (protein)
chain: KCKLDDDMNLLDIFIEMEKRVILGEGKLDILKRVCAQINKSLLKIINDYEEFSKGALTTTFEELHFEIKPHDDCTVEQIYEILKIYQLMDHSNMDCFICCILSHGDKGIIYGTDGQEAPIYELTSQFTGLKCPSLAGKPKVFFIQACQGDNYQKGIPVETDSEEQPYLEMDLSSPQTRYIPDEADFLLGMATVNNCVSYRNPAEGTWYIQSLCQSLRERCPRGDDILTILTEVNYEVSNKDDKKNMGKQMPQPTFTLRKKLVFPSD
[1]
  cell death of transfected 293-EBNA cells: No death
[2]
  protection against Fas/APO1 cytotoxicity (p55-Fas chimera): effective protection
[3]
  cell death of transfected MCF7 cells: No death
[4]
  protection against death induced by TNF and cycloheximide: effective protection
[5]
  protection against p55-R-induced cytotoxicity: effective protection
[6]
  cytotoxicity in transfected HeLa cells: somewhat cytotoxic
[7]
  protection against death induced by anti-Fas/APO1 antibody and cycloheximide: effective protection; also recorded: prevention
